In PMC11218721, “Receptor-Targeted Peptide Conjugates Based on Diphosphines Enable Preparation of ^99mTc and ^188Re Theranostic Agents for Prostate Cancer” (Journal of Nuclear Medicine, 2024):
Read-outs that look alike come from different tables or passages of the source.

Key:
[1] = Ex vivo biodistribution in athymic nude mice bearing LNCaP xenografts; conditions: male, athymic nude (Crl:NU(NCr)-Foxn1^nu), mouse, total radioactivity
Experimental: (§1) All animal experiments were ethically reviewed by an Animal Welfare and Ethical Review Board at either King’s College London or Barts Cancer Institute and were performed in accordance with the Animals (Scientific Procedures) Act 1986 U.K. Home Office regulations governing animal experimentation. Subcutaneous prostate cancer DU145-PSMA+ or DU145 xenografts were produced in SCID/beige mice (male, 7–12 wk old). Subcutaneous LNCaP prostate cancer xenografts were produced in athymic nude mice (Crl:NU(NCr)-Foxn1^nu, male, 6–7 wk old). SPECT/CT and biodistribution studies using ^99mTc and ^188Re radiotracers were performed once a tumor had reached an appropriate size (supplemental materials).
With a view to developing a molecular [^188Re]Re-labeled agent for PSMA PRRT, we further characterized the biodistribution profiles of [^188Re]Re-DP1-PSMAt and [^188Re]Re-DP2-PSMAt in male athymic nude mice bearing LNCaP xenografts (Fig. 4), which recapitulate clinical metastatic prostate cancer more closely than DU145-PSMA+ xenografts. […] In mice administered [^188Re]Re-DP1-PSMAt, LNCaP tumor uptake measured 7.0 ± 2.3 %ID/g at 2 h after injection and 2.9 ± 0.8 %ID/g at 24 h after injection. For [^188Re]Re-DP2-PSMAt, LNCaP tumor uptake measured 9.8 ± 2.8 %ID/g at 2 h after injection and 7.6 ± 4.4 %ID/g at 24 h after injection.
FIGURE 4. (A–C) Biodistribution of ^188Re in athymic nude mice bearing LNCaP prostate cancer tumors, administered either [^188Re]Re-DP1-PSMAt or [^188Re]Re-DP2-PSMAt at 2 h after injection (A), at 24 h after injection (B), and at 2 h after injection (C) with coadministration of Gelofusine. (D) Additionally, biodistributions of [^99mTc]Tc-DP1-PSMAt and [^99mTc]Tc-DP2-PSMAt at 2 h after injection were measured (Supplemental Tables 5–8). GI = gastrointestinal tract.

[2] = in vivo; parameters: species or system mice; conditions: male, SCID/beige, mouse, total radioactivity
Experimental: as §1
Additionally, groups of mice bearing non–PSMA-expressing parental DU145 tumors were also administered these ^99mTc radiotracers. For these groups, tumor uptake of [^99mTc]Tc-DP1-PSMAt decreased to 0.24 ± 0.07 %ID/g, and tumor uptake of [^99mTc]Tc-DP2-PSMAt decreased to 0.18 ± 0.07 %ID/g (Supplemental Fig. 3).

[3] = Ex vivo biodistribution in SCID/beige mice bearing DU145-PSMA+ xenograft tumors; conditions: male, SCID/beige, mouse, in vivo, iv, total radioactivity
Experimental: as §1
(§2) The biodistributions of [^99mTc]Tc-DP1-PSMAt and [^99mTc]Tc-DP2-PSMAt were assessed in male SCID/beige mice bearing DU145-PSMA+ xenograft tumors (Fig. 3). Each mouse was administered either [^99mTc]Tc-DP1-PSMAt or [^99mTc]Tc-DP2-PSMAt and euthanized at 2 h after injection (n = 5), followed by organ harvesting for ex vivo radioactivity counting.
(§3) FIGURE 3. (A) Biodistribution (2 h after injection) of SCID/beige mice bearing DU145-PSMA+ prostate cancer tumors, administered either ^99mTc or ^188Re radiotracers intravenously. To assess specificity of radiotracer uptake, additional groups of mice were also coadministered radiotracer and PMPA (Supplemental Tables 3 and 4). (B) Whole-body SPECT/CT maximum-intensity projections of SCID/beige mice bearing either DU145-PSMA+ tumors or DU145 tumors, administered either [^99mTc]Tc-DP1-PSMAt or [^99mTc]Tc-DP2-PSMAt, 2 h after injection. To inhibit uptake in DU145-PSMA+ tumors, animals were also coadministered PMPA.
(§4) To assess the specificity of each radiotracer, separate groups of animals, also bearing DU145-PSMA+ tumors, were coadministered either [^99mTc]Tc-DP1-PSMAt and PMPA or [^99mTc]Tc-DP2-PSMAt and PMPA to inhibit PSMA-mediated uptake of radiotracer (n = 5). […] For [^99mTc]Tc-DP1-PSMAt, coadministration decreased uptake to 0.91 ± 0.29 %ID/g in tumors (compared with administration of [^99mTc]Tc-DP1-PSMAt only: mean difference of 17.12 %ID/g, P = 4 × 10^−4). For [^99mTc]Tc-DP2-PSMAt, coadministration decreased uptake to 0.76 ± 0.45 %ID/g in tumors (compared with administration of [^99mTc]Tc-DP2-PSMAt only: mean difference of 28.62 %ID/g, P = 5 × 10^−4).

[4] = system: PC3 cells; assay: Radiotracer uptake in PC3 cells (non-PSMA-expressing); type: cell-based; conditions: 100 kBq, 1 h, 37°C; cells do not express PSMA
Experimental: (§5) Solutions containing radiotracer (100 kBq in 8–12 μL of phosphate-buffered saline, >95% radiochemical purity) were added to DU145-PSMA+ or LNCaP prostate cancer cells ([22]), and the cells were incubated at 37°C for 1 h. Nonspecific uptake was determined using non–PSMA-expressing cells (DU145, PC3) or by blocking PSMA-expressing cells (DU145-PSMA+, LNCaP) with 2-phosphonomethyl pentanedioic acid (PMPA). After incubation, the cells were washed and samples collected for radioactivity counting. Uptake and localization of ^99mTc radiotracers were measured over time (15, 30, 60, and 120 min) in DU145-PSMA+ or LNCaP cells (supplemental materials).
(§6) To assess the specificity of the new radiotracers for PSMA, [^99mTc]Tc-DP1-PSMAt and [^99mTc]Tc-DP2-PSMAt (100 kBq) were each incubated with DU145-PSMA+ prostate cancer cells (DU145 cells transfected to express PSMA receptor) ([22]). After 1 h of incubation, uptake of each radiotracer was quantified. […] In LNCaP cells, uptake of [^99mTc]Tc-DP1-PSMAt and [^99mTc]Tc-DP2-PSMAt measured 3.7 ± 1.2 %AR and 3.0 ± 0.8 %AR, respectively, whereas uptake of both radiotracers in PC3 cells measured less than 0.3 %AR.
(§7) FIGURE 2. (A) Uptake of radiotracers in PSMA-positive and PSMA-negative prostate cancer cells. (B) Time course uptake and localization of ^99mTc radiotracers in DU145-PSMA cells and LNCaP cells. Data are presented as mean ± SD; n = 3–4 biologic repeats performed in triplicate.

[5] = system: LNCaP prostate cancer cells, which natively express PSMA; assay: Radiotracer uptake in LNCaP prostate cancer cells; type: cell-based; conditions: 37°C; for uptake in LNCaP cells: 100 kBq radiotracer, 1 h incubation, percentage added radioactivity, mean ± SD, n = 3–4 biologic repeats in triplicate; for uptake in LNCaP cells with PMPA block: blocked with PMPA, 1 h
Experimental: as §5, §6, §7

[6] = system: DU145-PSMA+ prostate cancer cells (DU145 cells transfected to express PSMA receptor); assay: Radiotracer uptake in DU145-PSMA+ prostate cancer cells; type: cell-based; conditions: 37°C; for uptake in DU145-PSMA+ cells: 100 kBq radiotracer, 1 h incubation, percentage added radioactivity, mean ± SD, n = 3–4 biologic repeats in triplicate; for uptake in DU145-PSMA+ cells with PMPA block: coincubated with PSMA inhibitor PMPA, 1 h
Experimental: as §5, §6, §7

[7] = system: parental DU145 cells that do not express PSMA; assay: Radiotracer uptake in parental DU145 cells (non-PSMA-expressing); type: cell-based; conditions: 100 kBq, 1 h, 37°C
Experimental: as §5, §6, §7

[8] = system: DU145-PSMA+ xenograft tumors; assay: Ex vivo biodistribution in SCID/beige mice bearing DU145-PSMA+ xenograft tumors; conditions: for effect of PMPA coadministration on spleen uptake (in words) / effect of PMPA coadministration on tumor uptake (in words): SCID/beige mice bearing DU145-PSMA+ tumors, 2 h after injection; for radioactivity concentration in DU145-PSMA+ tumors: male, SCID/beige, mouse, in vivo, iv, 2 h
Experimental: as §1, §2, §3, §4

[9] = athymic nude mice bearing LNCaP tumors, 2 h after injection, Gelofusine coadministered, read-out: kidney retention with coadministration of Gelofusine
[10] = athymic nude mice bearing LNCaP tumors, 2 h after injection, read-out: concentration in kidneys at 2 h
[11] = athymic nude mice bearing LNCaP tumors, 24 h after injection, read-out: concentration in kidneys at 24 h
[12] = SCID/beige mice bearing DU145-PSMA+ tumors, 2 h after injection, read-out: radioactivity concentration in kidneys
[13] = SCID/beige mice, 2 h after injection, PMPA coadministered, n = 5, read-out: DU145-PSMA+ tumor uptake with coadministration of PMPA
[14] = SCID/beige mice, 2 h after injection, PMPA coadministered, read-out: radioactivity concentration in spleen with PMPA
[15] = radioactivity concentration in DU145-PSMA+ tumors
[16] = radioactivity concentration in spleen

| SMILES | tissue uptake at 2 h [1] [%ID/g] | tissue uptake at 24 h [1] [%ID/g] | tissue uptake at 2 h [1, 9] [%ID/g] | tissue uptake at 2 h [1, 10] [%ID/g] | tissue uptake at 24 h [1, 11] [%ID/g] | tissue uptake at 2 h [2] [%ID/g] | tissue uptake at 2 h [3, 12] [%ID/g] | tissue uptake at 2 h [3, 13] [%ID/g] | tissue uptake at 2 h [3, 14] [%ID/g] | tissue uptake at 2 h [3, 15] [%ID/g] | tissue uptake at 2 h [3, 16] [%ID/g] | uptake in PC3 cells (in words) [4] | uptake in LNCaP cells [5] [%AR] | uptake in LNCaP cells with PMPA block [5] | uptake in DU145-PSMA+ cells [6] [%AR] | uptake in DU145-PSMA+ cells with PMPA block [6] | uptake in parental DU145 cells [7] | effect of PMPA coadministration on spleen uptake (in words) [8] | effect of PMPA coadministration on tumor uptake (in words) [8] | radioactivity concentration in DU145-PSMA+ tumors [8] [%ID/g] | other results |
| --- | --- | --- | --- | --- | --- | --- | --- | --- | --- | --- | --- | --- | --- | --- | --- | --- | --- | --- | --- | --- | --- |
| Cc1ccc(P(/C(C(=O)O)=C(/C(=O)NCCOCCOCCOCCOCCC(=O)NCCCC[C@H](NC(=O)N[C@@H](CCC(=O)O)C(=O)O)C(=O)O)P(c2ccc(C)cc2)c2ccc(C)cc2)c2ccc(C)cc2)cc1 [[^188Re]Re-DP2-PSMAt, metal not drawn] | 9.8 ± 2.8 | 7.6 ± 4.4 | 128 ± 17.7 | 163 ± 31.8 | 37 ± 12.2 | – | – | – | – | – | – | – | – | – | – | – | – | – | – | – | – |
| O=C(O)CC[C@H](NC(=O)N[C@@H](CCCCNC(=O)CCOCCOCCOCCOCCNC(=O)/C(=C(\C(=O)O)P(c1ccccc1)c1ccccc1)P(c1ccccc1)c1ccccc1)C(=O)O)C(=O)O [[^188Re]Re-DP1-PSMAt, metal not drawn] | 7 ± 2.3 | 2.9 ± 0.8 | 109 ± 13.3 | 137 ± 34.6 | 29.4 ± 4.9 | – | – | – | – | – | – | – | – | – | – | – | – | – | – | – | – |
| O=C(O)CC[C@H](NC(=O)N[C@@H](CCCCNC(=O)CCOCCOCCOCCOCCNC(=O)/C(=C(\C(=O)O)P(c1ccccc1)c1ccccc1)P(c1ccccc1)c1ccccc1)C(=O)O)C(=O)O [[^99mTc]Tc-DP1-PSMAt, metal not drawn] | – | – | – | – | – | 0.24 ± 0.07 | 116 ± 27.3 | 0.91 ± 0.29 | 0.2 ± 0.06 | 18 ± 3.5 | 12 ± 5.3 | – | – | – | – | – | – | – | – | – | tissue uptake at 2 h ([3]; SCID/beige mice, 2 h after injection, PMPA coadministered, read-out: radioactivity concentration in kidneys with PMPA): 38 ± 2.9 %ID/g |
| Cc1ccc(P(/C(C(=O)O)=C(/C(=O)NCCOCCOCCOCCOCCC(=O)NCCCC[C@H](NC(=O)N[C@@H](CCC(=O)O)C(=O)O)C(=O)O)P(c2ccc(C)cc2)c2ccc(C)cc2)c2ccc(C)cc2)cc1 [[^188Re]Re-DP2-PSMAt] [metal not drawn] | – | – | – | – | – | – | – | – | – | – | – | negligible uptake | 2.6 ± 1.6 | could be blocked with PMPA | 8.3 ±0.7 | could be blocked with PMPA | negligible uptake | significantly inhibited uptake | significantly inhibited uptake | 19.2 ± 8.6 | – |
| Cc1ccc(P(/C(C(=O)O)=C(/C(=O)NCCOCCOCCOCCOCCC(=O)NCCCC[C@H](NC(=O)N[C@@H](CCC(=O)O)C(=O)O)C(=O)O)P(c2ccc(C)cc2)c2ccc(C)cc2)c2ccc(C)cc2)cc1 [[^99mTc]Tc-DP2-PSMAt, metal not drawn] | – | – | – | – | – | 0.18 ± 0.07 | 183 ± 23.8 | 0.76 ± 0.45 | 0.3 ± 0.18 | 29.4 ± 6.3 | 7.7 ± 3.4 | – | – | – | – | – | – | – | – | – | – |
| O=C(O)CC[C@H](NC(=O)N[C@@H](CCCCNC(=O)CCOCCOCCOCCOCCNC(=O)/C(=C(\C(=O)O)P(c1ccccc1)c1ccccc1)P(c1ccccc1)c1ccccc1)C(=O)O)C(=O)O [[^188Re]Re-DP1-PSMAt] [metal not drawn] | – | – | – | – | – | – | – | – | – | – | – | negligible uptake | 2.8 ± 1.6 | could be blocked with PMPA | 13.5 ± 2.7 | could be blocked with PMPA | negligible uptake | significantly inhibited uptake | significantly inhibited uptake | 27.7 ± 6.4 | – |
